For assay [1], the target named is domain 11 of the CI-M6P/IGF2R. The assay is described as follows: competitive ELISA on domain 11 of CI-M6P/IGF2R; cold ligand 1-500 nM against 8 nM biotinylated IGF2. Background: An ELISA detects its analyte on a solid surface through an enzyme-linked reagent.
Assay [2] concerns the target insulin receptor isoform-A (IR-A). The assay is described as follows: competitive ELISA on IR-A; cold ligand 1-500 nM against 0.8 nM biotinylated insulin.

In the case of “IDS.IGF2 (construct 2): IDS tagged C-terminally with aa 1, 8-67 of the mature human IGF2 (from UniProt P22304)”, in assay [1], the IC50 (in general, the concentration needed to halve the response being measured) came out at 61.7 nM and the times increased IC50 against Δ1-6.IGF2 peptide was 12.3 times. For the same substance, in assay [2], the IC50 was found to be 251 nM and the fold lower affinity than Δ1-6.IGF2 peptide was 150 fold.
Turning to “IGF2 peptide carrying a mutation of AA 1-6 (Δ1-6.IGF2 peptide) (from UniProt P01344) (ligand)”, the IC50 was 5.01 nM in assay [1] and 1.61 nM in assay [2].

These data come from patent US20260152730A1.
